Results taken from the DeepSol protein solubility set.

Test: soluble on expression in E. coli; label from the status in PepcDB or PDB records

| Sequence | soluble on expression in E. coli |
| --- | --- |
| MDVRIRAIDERSYLNIISAIFKDLGLPQLIDRLVPVDRQCQTRTSDIVSLIILDILSGRQALVHLERWAHDIDWPKWIRPGPDPSWFNDDAIARHLDRLYEANIHQVLSSCLVQIDKKEGLSLRVFHADATDKTVYGAYESDSSDVLHITYGYNRHHRWQKPIGFGLIGNEDGIPFYGDVHDGNLSDKAWNPEVLSRIHEQFKQAKIDDEWMYVADSVAMTKETLAQTKAANAFLITRGPSSLRIVKTALSEADAQPDSAWSAPLRWPRKTAPRIGYGKRPRPMKAAPYG | not soluble |
| MFSWQEFTERDVSLFTENVIRSLINTKYNVICHIEDYTPPQFDSFLQLSACYNIGEKTEDEVINSDGIRWSKKKDSLGSEMKPRKNTISVDGRTFRRINCSSPPPATNLFKKYMAIEEATKLCWILFLGSSHDVIDYTSLKVARKKLSKEEALMIRKMLEGRTVLMVYQMLGGKYSKRQIKDQQRNVLTTVKLNRGPRPVTNPADLCDLSRMFSHAYHSSHRNSIRFIYFNKSMLGLFLKSCPTYTEITTYRNRMDGIENWRTADLNKHLADCKVYTCGGIDTRVASIIELDTTFGLSNGYISVTTGFIPVFRTRQHTKSSPSKLRHVVLGFMFHSSKHKSHFEDFSGRLNEILQELDPKKIKKIQL | not soluble |
| MSLAEKPKKPQKLRARLPRGLADRGPAEIAATRAMVEKIREVYERYGFEPVETPAFEYTDALGKFLPDQDRPNEGVFSLQDDDEQWISLRYDLTAPLARYVAENFDQLPKPHRSYRFGWVFRNEKPGPGRFRQFMQFDADTVGAPTAAADAEMCMMAADTMEALGIPRGSYVVKVNNRKVLDGVLESIGLGGDENAGRRLTVLRAIDKSDKFAPEEIKKLLGPGRWDGGEEGKGDFTKGAMLSDDQSELILRATSPSFIAGRFNADGSGGISNIDTVELLRSTADNETLKQGCDELAVIADLLDACGYGATSANPDVRVVIDPSVVRGLEYYTGPVYEVELLLDTKDEKGRPVRFGSVGGGGRYDGLVSRFRGEPVPATGFSIGVSRLQAALTLIGQLGNKPQAGPVVVTVFGGEIAGYQKMVATLRKAGIRAELYLGNPKHSLGQQMKYADKRNSPCAIIQGSDEKQQGIVQIKDLILGAELASLEKDRDEYLKKQAEAQFSCNEDEMVAKVQELLQRRGWRGGKGIITITTDPNSSSVDKLAAALEHHHHHH | soluble |
| MAHHHHHHMRPLLVFGLRGTLLERIHASRVPSGMPGGAITVGMSRVWLRPSAMETLLALQQHCTLAVWSSTTARNTTPLMEAVFSQHAQKVNFAFVWSREHTTADEFRRVSATSRDDQHATVKDLREVYRRFPEIATPQNTVLIDDTPSKGKLNASNFLWLETCEELKIENPNVMPALRRFVEEHLLAEREDVRRLLPARVPWGQQ | not soluble |
| TEQERLELEAAAFRRLVAHLDSRKDVQNIDLMNLSGFCRNCLSKWYKAAADEKHIDITLDDAREVVYGMPYSEWKANYQKEASAEQQAAFVKESKH | not soluble |
| MSIAVGMIETRGFPAVVEAADSMVKAARVTLVGYEKIGSGRVTVIVRGDVSGVQASVSAGIEAANRVNGGEVLSTHIIARPHENLEYVLPIRYTEEVEQFRTYGVPRGLEHHHHHH | soluble |
| DGTCVNTNSQITANSQCVKSTATNCYIDNSQLVDTSICTRSQYSDANVKKSVTTDCNIDKSQVYLTTCTGSQYNGIYIRSSTTTGTSISGPGCSISTCTITRGVATPAAACKISGCSLSAM | soluble |
| MSSSNKESASDLIRAKDAGLLDIWALPSFDPHVEPEPEPEPEPVDEPAEMEEVPLDEVQPLTLEELESIRQEAWNEGFATGEKEGFHSTQLKVRQEAEVVLAAKVASLEQLMGHLLAPIAEQDTQIEKAVIHLVEHIARQVIQRELVTDSGQIASVLRDALKLLPMGAQNLRIFINPQDFLLVKAMRERHEEAWKIVEDEDLLPGGCRIETEHSRIDASVETRIALAISKMHDQLHEQVTHPAAADLSVDLDASPVSTAKTEDSDVDALDAP | not soluble |
| GSNAFGRFIDKIYLNSVGWRGIRQRKTHLQMLIKQAVAHLHAKGLAVRVVDIAAGHGRYVLDALANEPAISEILLRDYSEVNVAQGQEMIAQRGMSGRVRFEQGDAFNPEELSALTPRPTLAIVSGLYELFPENEQVKNSLAGLANAIDPGGILIYTGQPWHPQLELIAGVLTSHKDGKPWVMRVRSQGEMDSLVHDAGFDKCTQRIDVWGIFTVSMAVRRDN | not soluble |
| MIFHDVVESDLHDWECDDDYVCKFCTVRVNNWKIEIYQLWHYFFFLKDVVGVIVRKLNIAIDRDYTCEGLHVAGLIGYDYDKVEEYTGMCTICKLGDCGGMCRRVVEHCKKCGPIQEGVFETPFEKPHHFESLEITSFTIDCLLYGNRFRPTLVNFKNAPITVDSLSINAPSSGIPKVFLSAMMISKWKLLILKTCEDSPYAMEELQLSLTGKMLEEMSNNDYKVKHFRKCFPTKKMSIKILSQIENIQDIRKLCIQEKNLDLAIDIICDKSLLLKFWVSQKNTRGSFWKMKML | not soluble |
| MQCNDVQATEPDIKVSLTRVGVTNLKKLVKLKRKNKRDIVLLPTFEVFVDLPSSQKGIHMSRSPEVIEEVVENILLEKEIYGVEDLSVEIVMKLFEKHEYATRAEVMLYSDYMMEEKSPVTKKDSQEIGKIIARAYGVKDSNGKIDVKKMVGAEVVGITACPCAQNMLKENAVVSLTEKGFSSEDIEKILDSVTIATHNQRGIGTVMIEVPNGYTVGISKIIKIIKDSMSGEVYELLKRSDEAFVVEAAHKNPKFVEDCAREMIKRVVDVFDYLPEDTQVLVRQVNKESIHRHDAFAERNSTIRELRDELKTLTN | not soluble |
| MITVPHSRKVELDEIDRAILRLLQEDGRMSYSEISRRINVPESTVRARVNRLVKEGVIRKFAALINPFKAGYEIVAFIAVDAEPAKVKQVVEELAKFPEVDVLGIVTGAHDIFMQVTVKDLQELERFILEKMAKIDGIKSTETSILTSVKKWGYARVF | soluble |
| MSLSTPPRAFSLVETGEALTRGDEPSPTRSAVLTRLSHSHMRFGTFQRLAYLDRRDLMVQLVDHVIESYFPDLADESDRPAVLMRAVVSASARLLSRWMSAGFVHGVLNTDNMVVTGESFDYGPWRFLPRNDPNFVAAYFDHAGLYSFGRQPEAVFWNLQQLAGCLSLVTDQAALLAALNSFSDLYRAALRGAMLDRLGLKSRGAEADIALVNTAFRALAEGGETLRWEPFFFDWFGGAASEERALRGPRAGLYAGEAFLDLRRALADFDPDRPERLAHPAFARPEPEELIIDEVEALWSPIADADDWGPLNAKLARIDAAREAYALGQAQIEGHHHHHH | soluble |
| MTVANWQVRDLTLILRTGEMQSRLEQARTDFGALLPETVYFQPSAIRLGEFDDEYILTRQELVYVYLREDIARQCALRRHLPSNSSNSGIMATAIPPWLMDARRLNRVMQERCDQGGLVHYYQGPHTNQFFLAIMPSNCFVRFGTDVINNENYGFYARGGNYTEEGEDDDDEMDDEDETGGAETRDSQTGNLINYPIIALGSCHLSALEHHHHHH | not soluble |
| MGSDKIHHHHHHMNPFQNSFGGHIPQDVAGKQGENVIFIVYNLTDSPDTVDKVKDVCANFSAMIRSMRNRFPDMQFSCTMGFGADAWTRLFPDKGKPKELSTFSEIKGEKYTAVSTPGDLLFHIRAKQMGLCFEFASILDEKLKGAVVSVDETHGFRYMDGKAIIGFVDGTENPAVDENPYHFAVIGEEDADFAGGSYVFVQKYIHDMVAWNALPVEQQEKVIGRHKFNDVELSDEEKPGNAHNAVTNIGDDLKIVRANMPFANTSKGEYGTYFIGYASTFSTTRRMLENMFIGSPAGNTDRLLDFSTAITGTLFFVPSYDLLGELGE | not soluble |
